Assay results taken from patent US20240398899A1 (priority 2021, published 2024).
Values joined by “and” are separate entries in the source; they are usually repeats but may differ in a detail not shown here. Identical values can stand only once.

Key:
SH-SY5Y neuronal cells = assay: Annexin-V staining of apoptotic cells against MPP+ iodide damage; type: cell-based, human; conditions: MPP+ iodide 1 mM; for % Decrease in Apoptotic cells (wrt MPP + iodide): Annexin
Protocol: After 24 h of treatment, cells were exposed to damage (MPP+ iodide 1 mM) for 24 h. […] Untreated cells were included as control. Cells treated with Deprenyl served as positive control. After treatment, cells were harvested by trypsinization and processed for Annexin V assay as follows: Cell were gently harvested into pre-labeled sterile centrifuge tubes and centrifuged at 300×g for 5-7 min. After 24 h of treatment, cells were exposed to damage (MPP+ iodide 1 mM) for 24 h. Cells treated with MPP+ iodide alone were included as Control. Untreated cells were included as negative control. Cells treated with Deprenyl served as positive control. After treatment, cells were harvested by trypsinization and processed for Annexin V assay as follows: Cell were gently harvested into pre-labelled sterile centrifuge tubes and centrifuged at 300×g for 5-7 min. Supernatant were discarded and the pellet was resuspended in 200 μl of fresh culture medium. 100 μl of cell suspension was transferred into pre-labeled sterile centrifuge tubes. 100 μl of Annexin-V reagent was added to each tube and incubated for 30 min at RT in dark. Cells stained for Annexin-V were then transferred into 96-well plates and acquired on flow cytometer (Guava technologies). Percentage of Annexin-V positive cells was determined.
Percent inhibition in apoptotic cells=[(% Annexin positive cells in MPP+iodide alone)−(% Annexin positive cells in Recombinant Lectin having SEQ ID NO:1+MPP+iodide)/% Annexin positive cells in MPP+iodide alone]*100

[1] = system: Brain NGF (Nerve Growth Factor); assay: Brain biomarker ELISA, scopolamine induced dementia; type: in vivo, Mus musculus (Swiss Albino); conditions: for brain nerve growth factor (NGF) Mean: scopolamine 2.5 mg/kg i.p., mice
Protocol: (§5) Healthy male Swiss albino mice (n=48) were selected and randomized based on body weight (n=8 per Group) into 6 groups as mentioned in table no-1. The control group G1 was treated intravenously with vehicle daily till the experiment completion. Group G2 was considered as negative control and treated with vehicle. […] Group G4, G5 &G6 animals were treated with the test item recombinant lectin protein having SEQ ID NO: 1 at the dose of 0.5 mg/kg, 0.25 mg/kg and 0.125 mg/kg, respectively. All the test items were given intravenously (i.v) daily at the dose volume of 5 ml/kg for 14 Days. The body weight was recorded daily throughout the experimental period. […] One hour after the last dose of test items (on Day 14) all the animals were injected with scopolamine hydrobromide at the dose of 2.5 mg/kg, i.p., except the normal control group G1. Passive avoidance test was conducted 30 min after scopolamine injection.
(§6) After passive avoidance test screening models of memory, the animals were sacrificed humanely. The whole brain was carefully removed from the skull and weighed. Brain was dissected into two portions
(§7) 10% w/v brain homogenate (100 mg/mL) was prepared by homogenizing it in ice-chilled phosphate buffer. The homogenate was subsequently centrifuged using a refrigerated centrifuge at 3000 rpm for 10 min, and the supernatant was separated and used for the biochemical estimations.
(§8) Following biomarkers was estimated using ELISA kit as per manufacturer's instruction. • Brain NGF (Nerve Growth Factor), CUSABIO, Catalog No. CSB-E04684m • Acetylcholinesterase, CUSABIO, Catalog No. CSB-E17521m • TNF alpha, CUSABIO, Catalog No. CSB-E04741m

TNF alpha = assay: as above; type: in vivo, Mus musculus (Swiss Albino); conditions: scopolamine 2.5 mg/kg i.p., mice
Protocol: as §5, §6, §7, §8

Park7/DJ-1 = assay: Parkinson biomarker multiplex analysis/ELISA, MPP+ damaged SH-SY5Y; type: cell-based, human; conditions: MPP + Iodide (2 mM)
Protocol: (§1) After overnight incubation as in the previous examples, cells were treated with recombinant lectin protein having SEQ ID NO: 1 at different concentrations ranging from 0.001 μg/ml-1 μg/ml for 24 h for Parkinson disease and 0.01 μg/ml-25 μg/ml for 24 h for Alzheimer's disease. • Parkinson Disease: After 24 h of pre-treatment with recombinant lectin protein having SEQ ID NO: 1, cells were exposed (MPP+) for another 24 h. Cells treated with MPP+Iodide were included as Control. […] The cells treated with Galantamine were included as positive Control.
(§2) The levels of markers were determined by multiplex analysis as: Cell culture supernatants were diluted (1:2) with Calibrator Diluent. 50 μl of standard or sample was added per well. 50 μl of the microparticle cocktail was added to each well of the microplate and covered with a foil plate sealer. The plate was incubated for 2 hours at room temperature on a horizontal orbital microplate shaker. The plate was washed using a magnetic device designed to accommodate a microplate. Washing was done by applying the magnet to the bottom of the microplate, allowing 1 minute before removing the liquid, filling each well with wash buffer (100 μl) and allowing 1 minute before removing the liquid again. 50 μl of diluted Biotin-Antibody Cocktail was added to each well. Covered the plate with a foil plate sealer and incubated for 1 hour at room temperature on the shaker. Repeated the wash step. 50 μl of diluted Streptavidin-PE was added to each well. The plate was securely covered with a foil plate sealer and incubated for 30 minutes at room temperature on the shaker. Repeated the wash step. The microparticles were resuspended by adding 100 μl of Wash Buffer to each well. The plate was incubated for 2 minutes on the shaker and read within 90 minutes using Magpix® multiplex machine. Levels of biomarkers for Parkinson's and Alzheimer's disease were estimated using Magpix® multiplex machine.
(§3) For Parkinson's the percent modulation in each sample was determined as follows:
(§4) [{Concentration of biomarkers(pg/ml) in SEQ ID NO:1+MPP+Iodide treated cells)−Concentration of biomarkers(pg/ml) in Control cells(MPP+Iodide alone treated)}/Concentration of biomarkers(pg/ml) in Control cells(MPP+Iodide alone treated)]*100

α-Synuclein = assay: as above; type: cell-based, human; conditions: 0.001 μg/mL to 1 μg/mL, MPP+ iodide
Protocol: as §1, §2, §3, §4

ICAM1/CD54 = assay: as above; type: cell-based, human; conditions: MPP + Iodide (2 mM)
Protocol: as §1, §2, §3, §4

Calbindin D = assay: as above; type: cell-based, human; conditions: MPP + Iodide (2 mM)
Protocol: as §1, §2, §3, §4

Dopamine = assay: as above; type: cell-based, human; conditions: MPP + Iodide (2 mM)
Protocol: as §1, §2, §3, §4

Serotonin = assay: as above; type: cell-based, human; conditions: MPP + Iodide (2 mM)
Protocol: as §1, §2, §3, §4

S100b = assay: as above; type: cell-based, human; conditions: MPP + Iodide (2 mM)
Protocol: as §1, §2, §3, §4

B1: SEQ ID NO: 1: variant of the S. rolfsii lectin amino acid sequence (reported as Rec-2 in WO2010/095143) (protein)
chain: TYKITVRVYQTNPDAFFHPVEKTVWKYANGGTWTITDDQHVLTMGGSGTSGTLRFHADNGESFTATFGVHNYKRWCDIVTNLAADETGMVINQQYYSQKNREEARERQLSNYQVKNAKGRNFQIVYTEAEGNDLHANLIIG
- % Apoptotic cells (Anenxin + ve) (SH-SY5Y neuronal cells; 0.001 μg/mL): 1.8%
- % Decrease in Apoptotic cells (wrt MPP + iodide) (SH-SY5Y neuronal cells; 0.001 μg/mL): 56.8%
- % Apoptotic cells (Anenxin + ve) (SH-SY5Y neuronal cells; 0.01 μg/mL): 1.2%
- % Decrease in Apoptotic cells (wrt MPP + iodide) (SH-SY5Y neuronal cells; 0.01 μg/mL): 70.4%
- % Apoptotic cells (Anenxin + ve) (SH-SY5Y neuronal cells; 0.05 μg/mL): 2.6%
- % Decrease in Apoptotic cells (wrt MPP + iodide) (SH-SY5Y neuronal cells; 0.05 μg/mL): 35.8%
- % Apoptotic cells (Anenxin + ve) (SH-SY5Y neuronal cells; 0.1 μg/mL): 3.1%
- % Decrease in Apoptotic cells (wrt MPP + iodide) (SH-SY5Y neuronal cells; 0.1 μg/mL): 23.5%
- % Apoptotic cells (Anenxin + ve) (SH-SY5Y neuronal cells; 1 μg/mL): 2.3%
- % Decrease in Apoptotic cells (wrt MPP + iodide) (SH-SY5Y neuronal cells; 1 μg/mL): 43.2%
- level of NGF (brain) ([1]; 0.25 mg/kg, scopolamine treated mice): 62 µg/mL
- brain nerve growth factor (NGF) Mean ([1]; G4: 0.5 mg/kg i.v. qdx14): 71.6 pg/mL and 71.59 pg/mL
- brain nerve growth factor (NGF) Mean ([1]; G5: 0.25 mg/kg i.v. qdx14): 61.96 pg/mL
- brain nerve growth factor (NGF) Mean ([1]; G6: 0.125 mg/kg i.v. qdx14): 38.62 pg/mL
- brain TNF-alpha Mean (TNF alpha; G4: 0.5 mg/kg i.v. qdx14): 121.7 pg/mL and 121.73 pg/mL
- brain TNF-alpha Mean (TNF alpha; G5: 0.25 mg/kg i.v. qdx14): 67.65 pg/mL
- brain TNF-alpha Mean (TNF alpha; G6: 0.125 mg/kg i.v. qdx14): 79.53 pg/mL
- % Change of Biomarkers markers (with respect to Control) Park7/DJ-1 (Park7/DJ-1; 0.001 μg/mL): −2.5%
- % Change of Biomarkers markers (with respect to Control) Park7/DJ-1 (Park7/DJ-1; 0.01 μg/mL): −3.6%
- % Change of Biomarkers markers (with respect to Control) Park7/DJ-1 (Park7/DJ-1; 0.05 μg/mL): −7.1%
- % Change of Biomarkers markers (with respect to Control) Park7/DJ-1 (Park7/DJ-1; 0.1 μg/mL): −10.4%
- % Change of Biomarkers markers (with respect to Control) Park7/DJ-1 (Park7/DJ-1; 1 μg/mL): −12.6%
- modulation of α-Synuclein (α-Synuclein): no significant modulation
- % Change of Biomarkers markers (with respect to Control) ICAM1/CD54 (ICAM1/CD54; 0.001 μg/mL): 0%
- % Change of Biomarkers markers (with respect to Control) ICAM1/CD54 (ICAM1/CD54; 0.01 μg/mL): −6.2%
- % Change of Biomarkers markers (with respect to Control) ICAM1/CD54 (ICAM1/CD54; 0.05 μg/mL): −28.1%
- % Change of Biomarkers markers (with respect to Control) ICAM1/CD54 (ICAM1/CD54; 0.1 μg/mL): −36.3%
- % Change of Biomarkers markers (with respect to Control) ICAM1/CD54 (ICAM1/CD54; 1 μg/mL): −41.3%
- % Change of Biomarkers markers (with respect to Control) Calbindin D (Calbindin D; 0.001 μg/mL): 9.7%
- % Change of Biomarkers markers (with respect to Control) Calbindin D (Calbindin D; 0.01 μg/mL): 8.2%
- % Change of Biomarkers markers (with respect to Control) Calbindin D (Calbindin D; 0.05 μg/mL): 1.7%
- % Change of Biomarkers markers (with respect to Control) Calbindin D (Calbindin D; 0.1 μg/mL): 6.6%
- % Change of Biomarkers markers (with respect to Control) Calbindin D (Calbindin D; 1 μg/mL): −1.6%
- % Change of Biomarkers markers (with respect to Control) Dopamine (Dopamine; 0.001 μg/mL): 50.6%
- % Change of Biomarkers markers (with respect to Control) Dopamine (Dopamine; 0.01 μg/mL): 82.5%
- % Change of Biomarkers markers (with respect to Control) Dopamine (Dopamine; 0.05 μg/mL): 24.7%
- % Change of Biomarkers markers (with respect to Control) Dopamine (Dopamine; 0.1 μg/mL): 28.9%
- % Change of Biomarkers markers (with respect to Control) Dopamine (Dopamine; 1 μg/mL): 22.9%
- % Change of Biomarkers markers (with respect to Control) Serotonin (Serotonin; 0.001 μg/mL): 15.4%
- % Change of Biomarkers markers (with respect to Control) Serotonin (Serotonin; 0.01 μg/mL): 5.1%
- % Change of Biomarkers markers (with respect to Control) Serotonin (Serotonin; 0.05 μg/mL): 6.9%
- % Change of Biomarkers markers (with respect to Control) Serotonin (Serotonin; 0.1 μg/mL): 7.9%
- % Change of Biomarkers markers (with respect to Control) Serotonin (Serotonin; 1 μg/mL): 23.5%
- % Change of Biomarkers markers (with respect to Control) S100b (S100b; 0.001 μg/mL): −11%
- % Change of Biomarkers markers (with respect to Control) S100b (S100b; 0.01 μg/mL): 9%
- % Change of Biomarkers markers (with respect to Control) S100b (S100b; 0.05 μg/mL): −6.7%
- % Change of Biomarkers markers (with respect to Control) S100b (S100b; 0.1 μg/mL): −6.5%
- % Change of Biomarkers markers (with respect to Control) S100b (S100b; 1 μg/mL): −11.4%
